This series deals with Cy5-EF-Tu E348C (AV) C137A,C255V,E348C (Escherichia coli) (UniProt P0CE48). As to conditions: native tRNA modifications; 3'-aminoacylated with Phe; Cy3 on acp3U47; FRET titration; GTP form, 100 uM GTP, 8 mM Mg, 25 C.

In the case of Phe-tRNAPhe(Cy3), the Kd (usually the free concentration of one partner at which half of the binding sites on the other are occupied at equilibrium, for simple one-to-one binding) is 11 nM.

(Values after patent publication US10174358.)
